Molecular target: T1, V. cholerae ToxS periplasmic domain tagged with an N-terminal chitin binding domain (V. cholerae, UniProt P24003 26-173)
T1 construct: also called CBD-ToxSp
T1 sequence: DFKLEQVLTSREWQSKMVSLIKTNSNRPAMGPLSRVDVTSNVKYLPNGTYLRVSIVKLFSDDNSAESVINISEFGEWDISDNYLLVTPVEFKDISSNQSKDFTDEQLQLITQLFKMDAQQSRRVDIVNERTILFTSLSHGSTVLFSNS
Assay: pull-down
Conditions: both partners purified

B1: V. cholerae non-disulfide bonded ToxR periplasmic domain (domain or fragment)
chain: TNPSQTSFKPLTVVDGVAVNMPNNHPDLSNWLPSIELCVKKYNEKHTGGLKPIEVIATGGQNNQLTLNYIHSPEVSGENITLRIVANPNDAIKVCE
notes: also called Vc-ToxRp
  amount pulled down (buffer) relative to Vc-dbToxRp with CDC: 0.22 relative level
